Data taken from the nanobody polyreactivity screen of Harvey et al. (2022).

assay: yeast display, Sf9 membrane polyspecificity reagent, FACS + sequencing; frameworks hold sequencing errors
Procedure, shortened: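 After 36–48 hours of galactose induction, yeast (Saccharomyces cerevisiae BJ5465) displaying a synthetic nanobody library were stained at 4 °C for 1 hour with 10% biotinylated, detergent-solubilized Sf9 membrane reagent. Streptavidin microbeads enriched the stained cells before FACS sorting into low and high (top ~1%) gates on anti-HA and streptavidin fluorescence. Each clone's polyreactivity label reflects its gate of origin.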

Sequence | polyreactivity (PSR sort gate)
QVQLVESGGGLVQAGGSLRLSCAASGRTFPWYTMGWYRQAPGKERELVAAISWSGGSTFYADSVKGRFTISRDNAKNTVYLQMNSLKPEDTAVYYCAARSRPTVQRGYAYGYWGQGTQVTVSS | low polyreactivity
QVQLVESGGGLVQAGGSLRLSCAASGSTFGYYAMGWYRQAPGRERELVAAISYRSGSTYYADSVKGRFTISRDNAKNTVYLQMNSLKPEDTAVYYCAARFGRGSRYYYWGQGTQVTVSS | high polyreactivity
QVQLVESGGGLVQAGGSLRLSCAASGSTFDVNAMGWYRQAPGKERELVADITSGGSTNYADSVKGRFTISRDNAKNTVYLQMNSLKREDTAVYYCARDDWFGFIRVQEMDYWGQGTQVTVSS | low polyreactivity
QVQLVESGGGLVQAGGSLRLSCAASGFTITRYAMGWYRQAPGKERELVARITGRGGGTFYADSVKGRFTISRDNAKNTVYLQMNSLKPEDTAVYYCNTDYGSSYNYWGQGTQVTVSS | high polyreactivity
HVQLEESGGGLVQAGGSLRLSCAASGSISRANPSGWSRTAPGKERELLPANSRGGTTTYYADSVKGRFTISRDNAKNTVYLQMNSLKPEDTAVYYCAAVAGGGFPRWRIYFWPKGDYWGQGTQVTVSS | high polyreactivity
QVQLVESGGGLVQAGGSLRLSCAASGRIFYYYTMGWYRQAPGKERELVARINSSGSTNLRRLCEGALHNFTRQCEEYRLFTDEQPETGRYRVYYCNADTKRSSREYDYWGQGTQVTVSS | low polyreactivity
QVQLVESGGGLVQAGGSLRLSCAASGRSFYVYAMGWYRQAPGMERELVATITRGGRTYYADSVKGRFTISRDNAKNTVYLQMNSLKPEDTAVSYCNDEDGSRRYRYEYWGHGTQVTVSS | high polyreactivity
QVQLVESGGGLVQAGGSLRLSCAASGSIFPSYAMGWYRQAPGKERELVAAISRSAGSTYYADSVKGRFTISRDNAKNTVYLQMNSLKPEVTAVYYCAADVYSSRYRYDYWGQGTQVTVSS | low polyreactivity
QVQLVESGLGIVQAGGSLRLSCASSGSTFIFNTMVWYRQAPGKERELVAAIRLSGGSTYYADSVKGRFTISRDNAKNTVYLLINSLNPEDTAVYYCARRLATSGHTYDYWGQGTQVSVSS | low polyreactivity
QVQLVESGGGLVQAGGSLRLSCAASGITFYAYAMGWYRQAPGKERELVAAITSSGSSTYYADSVKGRFTISRDNAKNTVYLQMISLKPEDSAVYYCAARRYRSVRNDYWGQGTQVTVSS | high polyreactivity
QVQLVESGGGLVQAGGSLRLSCAASGSIFYTNAMGWYRQAPGKERELVAAIRKSGGSTYYADSVKGRFTISRDNAKNTVYLQMNSLKPEDTAVYYCNKLYRVPQDLHDYWGQGTQVTVSS | high polyreactivity
QVQLVESGGGLVQAGGSLRLSCAASGRTFYWNAMGWYRQAPGKERELVAAIRWRGGNTYYADSVKGRFTISRDNAKNTVYLQMNSLKPEDTEVYYCNKYGYKGGVGYDYWGQGTQVTVSS | high polyreactivity
QVLLVESGGGLVQAGGPLRLSCAASGFIIRTNAMGWYREEPGKERELDAAISRRGRTDYADSVKGRFTISRDNAKNTVYLQMKSLTPEESAVYYCNAYYAIQDSVHRYYFWGQGTQGTVSS | high polyreactivity
QVQLVESGGGLVQAGGSLRLSCAASGSIFGVNAMGWYRQAPGKERELVAGITTGGSTKYADSVKGRFTISRDNAKNTVYLQMNSLKPEDTAVYYCAATGKWYHFYHYGYWGQGTQVTVSS | low polyreactivity
QDQLVESGGGLVQAGGSLRLSCAGCAYIFGRYAMGWYRQAPGKEMELVAAITQRGGRTYYPDSVKGRFTISRDNAKNTVYLQMNSLKPEDTAVYYCAALLYFFLYDYWGQGTQVTVSS | low polyreactivity
QVQLVESGGGLVQAGGSLRFSCAASGRTFPVYAMGWYRQAPGKEREFVAAISYRTGSTYYADSVKGRFTISRDNAKNTVYLQMNSLKPVDSAVYYCAADYRGSYWRYYYWGQGTQVTVSS | high polyreactivity
QVQLVESGGGLVQAGGSLRLSCAASGRTFYSYAMGWYRQAPGKERELVASISSGGGTNYADSVKGRFTISRDNAKNTVYLQMNSLKPEDTAVYYCAAKYWFFYPYDYWGQGTQVTVSS | low polyreactivity
QVQLVESGGGLVQEGGSLRLSCADSGSTFASYAMGWNRQAPGKERELVAAITDSGGSTYYADSVKGRFTISRDNAKNTVYLQMNSLKPEVTAVYDCAAEDQESNAAGGYWGQGTQVTVSS | low polyreactivity
QVQLVESGGGLVQAGGSLRLSCAASGGTFGAYAMGWYRQAPGKERELVAAINVGGGSTYYADSVKGRFTISRDNAKNTVYLQMNSLKPEDTAVYYCAKDLYDGYWRGDYWGQGTQVTVSS | low polyreactivity
QVHHVESGGGLVQAGGCLRLSCAASGFIVRENAMGWYRQAPGKERELVAAISKSGGRTYYADSVKGRFTISRDNAKNTVYLQMNSLKPEDTAVFYCAAYPSYTIHPAGDYWGQGTQVTVSS | high polyreactivity
QVQLVESGGGLVQAGGSLRLSCAASGSIFTSNAMGWYRQAPGKERELVAAITSSSSTNYADSVKGRFTISRDNAKNTVYLQMNSLKPEDTAVYYCAKQGNNIPWYRPYGDYYYWGQGTLVTVSS | low polyreactivity

Sequence | polyreactivity (PSR sort gate)
QVQLVESGGGLVQAGGSLRLSCAASGSTFTSYAMGWYRQAPGKERELVATISKISGSTYYADSVKGRFTISRDNAKNTVYLQMNSLKPEDTAVYYCAAKQGWVQSSILWYRAYGYWGQGTQVTVSS | high polyreactivity
QVQLVESGGGLVQAGGSLRLSCAASGRTFYYYAMGWYRQAPGKERELVAAISRGGGSTYYADSVKGRFTISRDNAKNTVYLQMNSLKPEDTAVYSWNKVYSTSSYDYWGQGTQVTVSS | high polyreactivity
QVQLVESGGGLVQAGGSLRLSCAASGLISVIYAMGWYRQAPGKERELVAAISWRGANTYYADSVKGRFTISRDNAKNTVYLQMNSLKPEDTAVYYCNAVLYVWFAPYRYDYWGQGTQVTVSS | high polyreactivity
QVQLVETGGGLVHAGGSLRISCAASGLTFRGNAMGWYRQAPGKERELVATISSGGITNYADSVKGRFTISRDNAKNTVYLQMNSLKPEDTAVYYCAADWFVHKPRYQNSFDYWGQGTQVTVSS | low polyreactivity
QVQLVESGGGLVKAGGSLRLSSAATGFIFAYYDMGWYRQAPGKERELVAAISSRGGTYYADSVKGRFTISRDNATITVYLKMNCLKPEDTAVYDCAAASYTWVSRGYEYWGQGTQVTVSS | high polyreactivity
QVQLVESGGGLVQAGGSLRLSCAASGSIFSGNAMGWYRQAPGKERELVAFISWNAVGTYYSDSVKGRFTISRDNAKNTVYLQLNSLKPEDTAVYYCSAVRYTGFYYWGQGTQVTVSS | high polyreactivity
QVQLVESGGGLVQAGGSLRLSCAASGFTIYGYAMGGDRQAPGPERELVAAITSRGGSTYYADSVKGRFTISRDNAKNTVYLQMNSLKPEDTAVYYCSKASGIYLGSRYYDVPMDYWGQGTQVTVSS | high polyreactivity
QVQLVESGGGLVQAGGSLRLICAASGSTFWYYAMGWYRTAPGKDRELVAAITYGGGSTYYADSVKGRFTISRDNAKNTVYLQMNSLKPEDTAVYYCAAQSYDYWYDYDYWGQGTQVTVSS | high polyreactivity
QVQLVESGGGLVQAGGSLRLSCAASGRIFDHNAMGWYRPAPGKERELVAAIDWSGGSTYYADSVKGRFTISRDNAKNTVYLQMNSLKPEDTAVYYCNVYWHTFSWDDYGYWGQGTQVTVSS | low polyreactivity
QVQLVESGGGLVQAGGSLRLSCAASGGTFSYYTMGWYRPAPGKERELVAAISSGGSTNYADSVKGRFTISRDNAKNTVYLQMNSLKPEDTAVYYCAVRSGRRNYDRPAFGYWGQGTQVTVSS | high polyreactivity
QVQLVESGGGLVQAGGSLRLSCAASGSTFDSYAMGWYRQAPGKERELVAAITRSDASTYYADSVKGRFTISRDNAKNTVYLQMNSLKPEDTAVYYCDADTSLVYYGGDWEYYYWGQGTQVTVSS | low polyreactivity
QVQLVESGGGLVQAGGSLRLSCAASGIIFVYNAMGWYRQAPGKERELVAVISFIGDSTYYADSVKGRFTISRDNAKNTVYLQMNSLKPEDTAVYYCAADYYLPYWFFVGYDYWGQGTQVTVSS | low polyreactivity
QVQLVESGGGLVQAGGSLRLSCAASGRTFSTYAMGWYRQAPGKERELVAAITSSGTSTYYADSVKGRFTISRDNAKNTVYLQMNSLKPEDTAVYYCAAVTKRYLAYDYWGQGTQVTVSS | high polyreactivity
QVQLVESGGGLVQAGGSLRLSCAASGSTFLRNAMGWYRQAPGKERELVATISRTGGTTYYADSVKGRFSISRDNAKTTVYLQMNSLKPEDTAVYYCAAYSKYGQHYDYWGQGTQVTVSS | high polyreactivity
QVQLVESGGGLVQAGGSLRLICAASGSIFYYYAMVWYRQAPGKERELVAAISSGGSTNYADSVKGRFTISRDNAKNTVYLQMNSLKPEDTAVYYCAADYRAQYVVWYTYDYWGQGTQVTVSS | low polyreactivity
QVQLVESGGGLVQAGGSLRLICAASGSIFGSNAMGWYRQAPGKEREFVAVITWRVGDTYYADSVKGRFTISRDNAKNTVYLQMKSLKPEDTAVYYCNVDWKVYGAPDYRIAWKYDYWGQGTQVTVSS | low polyreactivity
QVQLVESGGGLVQAGGSLRLSCAASGSIFWRYAMGWYRQAPGKERELVAAITWSGGTSYADSVKGRFTLSRDNAKNTVYLQMNSLKQEDTAVYYCIADGLSYYLYDYWGQGTQVTVSS | low polyreactivity
QVQHVESGGGLVQAGGSLRLTCAASGTIFRYYTMRWYRQAPGKERELVASISRGGNTYYADSVKGRFTISRENAKNTVYLPMNSLKPEDTAVSYCAALPGSFFQAHFYYWGQGTQVTVSS | low polyreactivity
QVQLLESGGGLVQAGGSLRLSCAPSGRTLVHYGMGWYRHAPGKERELVAAISYSGGRTYYADSVKGRVTISRDNAKNTVYLQMNSLKPEDTAVYYCAKDFGSYQRRYGYWGQGTQVTVSS | high polyreactivity
QVQLVESGGGLVQAGGSLRLSCAASGSTFLNNAMGWYRQAPGKERELVATITSGGITNYADSVKGRFTISRDNAKNTVYLQMNSLKPEDTAVYYCNADTWGFTYYYWGQGTQVTVSS | low polyreactivity
